Square brackets hold non-standard residues; d marks the D form. Ends that are not written are not given here.

Results on three molecules are retold here after patent US20230355784A1.

The target in this assay is mAB anti V5 (Thermo Scientific) (mouse). In words: 1 ug/ml mouse anti V5 with increasing SADC, capture on streptavidin plate, bound IgG by ELISA. (An ELISA detects its analyte on a solid surface through an enzyme-linked reagent.)

On to IPNPLLGLDGGSGDYKDDDDKGK[BiotinAca]GC (peptide, part only; not given: albumin scaffold, not shown: large carriers, also: bound to albumin scaffold) [SADC with albumin scaffold carrying the tagged V5 peptide], for which the EC50 (as a rule, the concentration that produces a half-maximal response) stood at 0.0279 mg/L.

The molecule IPNPLLGLDGGSGDYKDDDDKGK[BiotinAca]GC (peptide, part only; not given: transferrin scaffold, not shown: large carriers, also: bound to transferrin scaffold) [SADC with transferrin scaffold carrying the tagged V5 peptide] showed an EC50 of 0.007 mg/L. With IPNPLLGLDGGSGDYKDDDDKGK[BiotinAca]GC (peptide, part only; not given: haptoglobin scaffold, part only, also: bound to haptoglobin scaffold) [SADC with haptoglobin scaffold carrying the tagged V5 peptide] the figure was 0.0555 mg/L.
